# Test results from US20160194653A1.
# Target: GAL4 activation domain-HAB1 fusion protein (UniProt Q9CAJ0)
# Test: cell-based or functional assay
# UniProt Q9CAJ0, sequence (Q9CAJ0 23-511 limits assumed): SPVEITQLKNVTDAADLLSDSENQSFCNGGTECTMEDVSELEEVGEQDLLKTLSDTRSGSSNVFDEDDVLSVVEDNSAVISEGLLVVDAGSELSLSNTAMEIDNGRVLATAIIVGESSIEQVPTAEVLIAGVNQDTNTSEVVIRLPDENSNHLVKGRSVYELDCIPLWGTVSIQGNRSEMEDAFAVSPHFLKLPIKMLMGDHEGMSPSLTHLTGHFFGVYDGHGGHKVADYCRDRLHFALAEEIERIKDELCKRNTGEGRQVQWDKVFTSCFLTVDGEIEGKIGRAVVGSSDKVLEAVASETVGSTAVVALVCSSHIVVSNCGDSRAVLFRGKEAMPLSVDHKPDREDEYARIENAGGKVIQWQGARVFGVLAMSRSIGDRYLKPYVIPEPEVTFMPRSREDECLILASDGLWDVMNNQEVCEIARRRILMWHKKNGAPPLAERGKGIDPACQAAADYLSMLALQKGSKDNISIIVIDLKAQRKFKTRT
Substance,Minimal conc. For ABA response [µM],"uracil-independent growth (URA3 reporter, yeast two-hybrid) on medium with ABA [nM]"
PYR1 mutant A160C (from UniProt P04386 1-147) (receptor),0.25,
PYR1 mutant A160I (from UniProt P04386 1-147) (receptor),0.25,
PYR1 mutant A160V (from UniProt P04386 1-147) (receptor),0.25,
PYR1 mutant E141C (from UniProt P04386 1-147) (receptor),0.5,
PYR1 mutant E141I (from UniProt P04386 1-147) (receptor),0.25,
PYR1 mutant E141L (from UniProt P04386 1-147) (receptor),0.25,
PYR1 mutant E141M (from UniProt P04386 1-147) (receptor),0.25,
PYR1 mutant E141N (from UniProt P04386 1-147) (receptor),0.5,
PYR1 mutant E141T (from UniProt P04386 1-147) (receptor),0.5,
PYR1 mutant E141V (from UniProt P04386 1-147) (receptor),0.5,
PYR1 mutant E141W (from UniProt P04386 1-147) (receptor),0.5,
PYR1 mutant E141Y (from UniProt P04386 1-147) (receptor),0.25,
PYR1 mutant F61L (from UniProt P04386 1-147) (receptor),0.25,
PYR1 mutant F61M (from UniProt P04386 1-147) (receptor),0.25,
PYR1 mutant I110C (from UniProt P04386 1-147) (receptor),0.25,
PYR1 mutant I110S (from UniProt P04386 1-147) (receptor),0.5,
PYR1 mutant V81I (from UniProt P04386 1-147) (receptor),0.25,
PYR1 mutant V81Y (from UniProt P04386 1-147) (receptor),0.25,
"PYR1F61L, A160C (from UniProt P04386 1-147) (receptor)",,50
"PYR1F61L, V81I, I110C, A160V (from UniProt P04386 1-147) (receptor)",,50
"PYR1F61M, A160V (from UniProt P04386 1-147) (receptor)",,50
"PYR1F61M, I110S, A160V (from UniProt P04386 1-147) (receptor)",,50
